The values below come from US20060021091, “Maize bZIP transcription factors and genes encoding the same and use thereof” (published 2006).

What all share (details): tags: GST (pGEX4T-1); label: 32P 5' end (EMSA); annealed oligos with 3-nt overhangs, ligated as 4mer
Data set [1] addresses T1, ABP9 (Zea mays).
T1 chain: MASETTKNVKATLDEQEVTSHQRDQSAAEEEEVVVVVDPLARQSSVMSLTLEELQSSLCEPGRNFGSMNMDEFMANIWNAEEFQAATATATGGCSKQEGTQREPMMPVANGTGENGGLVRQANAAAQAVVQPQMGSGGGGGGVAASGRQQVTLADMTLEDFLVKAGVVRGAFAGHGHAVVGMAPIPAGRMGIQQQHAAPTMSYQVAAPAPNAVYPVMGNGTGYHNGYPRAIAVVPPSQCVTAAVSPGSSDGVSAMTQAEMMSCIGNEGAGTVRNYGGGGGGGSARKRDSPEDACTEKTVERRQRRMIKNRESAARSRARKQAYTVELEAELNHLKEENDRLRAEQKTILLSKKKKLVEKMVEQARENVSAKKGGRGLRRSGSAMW
The data set can be described thus: EMSA; 25 mM HEPES-KOH pH 7.6, 50 mM KCl, 10% glycerol, DTT, on ice. The method, then: (§1) Add 4 μl of 5×binding buffer (125 mM HEPES-KOH pH7.6, 50% glycerol, 250 mM KC1). Add 4 μg (9 μl) of each of the proteins ABP2, ABP4, ABP9 and GST. Add 1 μl of 1M DTT, 1 μl of probe of the above-labeled ABRE (or InABRE) and 4 μl of H₂O. Incubate on ice for 30 minutes. Add 3 μl of sample buffer (0.025% bromophenol blue in sterile H₂O) and perform polyacrylamide gel eletrophoresis analysis.
(§2) Set up the gel mixture of 9 ml of 30% acrylamide, 5 ml of 10×eletrophoresis buffer (142.7 g/L glycin, 3.92 g/L EDTA, 30.28 g/L Tris), 2.5 ml of 50% glycerol, 33 ml of deionized water, 400 μl of 10% APS, and 25 μl of TEMED. After completion of polymerization, perfom gel eletrophoresis with 1×eletrophoresis buffer, including pre-running for 10 minutes (300V), loading the samples and eletrophoresis for 1 hour (300V). Stick the gel with filter paper to peel off. Seal the peeled gel with Saran wrap and expose to X ray film for 1 hour. Wash the film, develop for 2 minutes and fix for 5 minutes. […] This means that the products of the genes ABP2, ABP4, and ABP9 also have the ABRE binding specificity in vitro.

In data set [2] the target is T2, ABP4 (Zea mays).
T2 chain: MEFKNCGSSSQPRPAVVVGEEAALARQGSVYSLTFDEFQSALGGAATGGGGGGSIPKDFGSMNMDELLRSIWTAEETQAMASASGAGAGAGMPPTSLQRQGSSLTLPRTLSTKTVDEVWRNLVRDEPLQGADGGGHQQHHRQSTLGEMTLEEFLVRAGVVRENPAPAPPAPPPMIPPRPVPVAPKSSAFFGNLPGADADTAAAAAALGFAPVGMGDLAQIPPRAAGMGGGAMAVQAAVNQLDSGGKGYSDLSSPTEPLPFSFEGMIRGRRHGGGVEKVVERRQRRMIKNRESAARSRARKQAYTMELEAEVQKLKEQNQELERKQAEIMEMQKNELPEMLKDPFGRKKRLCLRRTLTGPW
The description is as above. On the procedure:
as §1, §2

The target of data set [3] is T3, ABP2 (Zea mays).
T3 chain: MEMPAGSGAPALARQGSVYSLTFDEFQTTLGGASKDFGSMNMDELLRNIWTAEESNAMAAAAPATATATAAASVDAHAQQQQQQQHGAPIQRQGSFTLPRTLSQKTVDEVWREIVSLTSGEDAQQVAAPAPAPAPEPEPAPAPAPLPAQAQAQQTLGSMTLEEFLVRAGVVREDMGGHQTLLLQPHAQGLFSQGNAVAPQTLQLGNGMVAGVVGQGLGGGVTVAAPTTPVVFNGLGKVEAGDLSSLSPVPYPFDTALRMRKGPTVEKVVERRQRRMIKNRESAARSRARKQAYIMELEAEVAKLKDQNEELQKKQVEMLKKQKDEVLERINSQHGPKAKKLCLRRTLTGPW
Described as above. On the procedure:
as §1, §2

Data set [4] has as its target T1, ABP9. The experiment in a line: EMSA; no retarded band. On the procedure: as §1, §2
For data set [5], the target named is T2, ABP4. The experiment in a line: EMSA; no retarded band. The method, then: as §1, §2
In data set [6] the target is T3, ABP2. The experiment in a line: EMSA; no retarded band. The method, then:
as §1, §2

B1: ABRE (dsDNA)
DNA 1: GAAGTCCACGTGGAGGTGG
DNA 2: TCCCACCTCCACGTGGACT
Consider B1, for which the binding result with ABP9 [1], with ABP4 [2] and with ABP2 [3] was “binds” each time.

B2: mABRE (dsDNA)
DNA 1: GAAGTAACATGTTCGGTGG
DNA 2: TCCCACCGAACATGTTACT
Consider B2, for which the binding result with ABP9 [4], with ABP4 [5] and with ABP2 [6] was “no binding” in each case.
